Results reported in patent US20050010028A1 (KEIO UNIVERSITY, published 2005).

B1: Rhodamine green-labeled c-Fos (other, UniProt P01101 118-211, looked up)
chain: GRAQSIGRRGKVEQLSPEEEEKRRIRRERNKMAAAKCRNRRRELTDTLQAETDQLEDEKSALQTEIANLLKEKEKLEFILAAHRPACKIPDDLG
modifications: C-terminus joined through puromycin to a rhodamine green modifying agent that also carries biotin or iminobiotin (Modifying agent 22 or 23; which one in the FCCS sample is not stated)
notes: also called Rh-Fos; rhodamine green-modified c-fos; not shown: T7 tag at the N-terminus; C-terminal polyhistidine tag
B2: Cy5-labeled c-Fos (other, UniProt P01101 118-211, looked up)
chain: B1 chain
modifications: C-terminus joined through puromycin to a Cy5 modifying agent that also carries biotin or iminobiotin (Modifying agents 24-26; Modifying agent 25 in FIGS. 14 and 15; the agent used in the FCCS sample is not stated)
notes: also called Cy5-Fos; not shown: T7 tag at the N-terminus; C-terminal polyhistidine tag
B3: streptavidin-fused Fos protein (other, UniProt P01101 118-211, looked up)
chain: B1 chain
notes: From plasmid pSP6-STA-Fos (pET20b backbone), spotted as translation solution on a biotin-coated slide; also called STA-Fos; STA-Fos(F); not shown: T7 tag at the N-terminus of streptavidin; streptavidin, gene amplified from the Streptomyces avidinii genome

Tests used:
Cy5-labeled c-Jun = molecular target: T1, Cy5-labeled c-Jun (mouse, UniProt P05627 216-318, C-terminus joined through puromycin to a Cy5 modifying agent that also carries biotin or iminobiotin (Modifying agents 24-26; Modifying agent 25 in FIGS. 14 and 15; the agent used in the FCCS sample …); assay: fluorescence cross-correlation spectroscopy in solution, 10 nM each of the two labelled proteins and AP-1 double-stranded DNA
T1 construct: also called Cy5-Jun; Cy5-modified c-Jun; not shown: T7 tag at the N-terminus; C-terminal polyhistidine tag
Protocol: (§1) Intermolecular interactions were analyzed by fluorescence cross-correlation spectroscopy using fluorescence-labeled c-Fos and c-Jun as well as AP-1 sequence double-stranded DNA. DNA and the modified proteins (at a final concentration of 10 nM each) were mixed. 10 μl of this sample was applied to an 8-well glass chamber (Nunc), and fluorescence cross-correlations were measured by using a fluorescence correlation spectrometer, ConfoCor2 (Car1 Zeiss). […] Based on the above, it was confirmed that proteins labeled with fluorescence according to the present invention could be used to detect protein interactions by using a fluorescence cross-correlation spectroscopy and further could be utilized for convenient and quick measurement of dissociation constant.

[1] = molecular target: B1; assay: fluorescence cross-correlation spectroscopy in solution, Cy5-Fos + Rh-Fos + AP-1 DNA
Protocol: as §1

[2] = molecular target: T2, Fos modified with TAMRA-dC-puromycin (Modifying agent 19) (mouse, UniProt P01101 118-211, C-terminus joined to TAMRA-dC-puromycin (Modifying agent 19)); assay: protein microarray: STA-Fos on a biotin plate, labelled Fos in solution, fluorescence scan
T2 construct: also called C-terminal fluorescence-labeled Fos; Fos protein having 12 His tags

T1 sequence (P05627 216-318): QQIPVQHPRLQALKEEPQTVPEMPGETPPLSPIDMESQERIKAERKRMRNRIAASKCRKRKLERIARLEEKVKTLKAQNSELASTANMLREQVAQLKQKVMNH

## B1
Cy5-labeled c-Jun
  Kd: ~10 nM

## B2
[1]
  binding result: no binding (tested: 10 nM each)

## B3
[2]
  binding result: no binding
